B1: Azoarcus group I ribozyme (parent)
chain: GUGCCUUGCGCCGGGAAACCACGCAAGGGAUGGUGUCAAAUUCGGCGAAACCUAAGCGCCCGCCCGGGCGUAUGGCAACGCCGAGCCAAGCUUCGGCGCCUGCGCCGAUGAAGGUGUAGAGACUAGACGGCACCCACCUAAGGCAAACGCUAUGGUGAAGGCAUAGUCCAGGGAGUGGCGAAAGUCACACAAACCGG

Variants of B1 are the subject of this data set. The data set can be described thus: reverse-splicing fitness (ratio to wild type); higher = more active; in vitro selection; Mg2+ level not given. The method in brief:
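An in vitro group I ribozyme library with randomized positions was T7-transcribed and gel-purified. In triplicate, 10 pmol RNA in EPPS pH 7.5 was reacted with 50 pmoles of a 30-nt RNA substrate for 1 h at 37 °C across several added MgCl2 levels (1–48 mM), then stopped with EDTA. Products were reverse transcribed from a substrate-complementary primer, PCR-amplified and sequenced (HiSeq 4000). Fitness is a variant's read proportion after selection over that before, normalised to wild type.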
Regarding C82A A111C C150U C169U U176C, the reverse-splicing fitness is 0.0147.
For C82A A111C C150U C169U U176G, the reverse-splicing fitness came out at 0.00804.
On to C82A A111C C150U C169U U176A, for which the reverse-splicing fitness was 0.0165.
The same measure for C82A A111C A145G C150U C169U: 0.0119.
Take C82A A111C A145G C150U C169A: the reverse-splicing fitness was 0.0103.
The same measure for C82A A111C A145G C150U C169G: 0.00915; for C82A A111C A145C C169G U176C: 0.0216; for C82A A111C A145C C169G U176A: 0.0269.
Under C82A A111C A145C C169G U176G stands 0.00783; under C82A A111C C169A U176C, 0.0237; under C82A A111C C169A U176G, 0.00874.
For C82A A111C C169A U176A, the reverse-splicing fitness stood at 0.0171.
Under C82A A111C C150G C169U stands 0.00907; under C82A A111C C150G C169G, 0.00723.
Turning to C82A A111C C150G C169A, the reverse-splicing fitness came out at 0.00766.
The same measure for C82A A111C C150A C169U U176A: 0.0161; for C82A A111C C150A C169U U176G: 0.0104; for C82A A111C C150A C169U U176C: 0.0182.
Under C82A A111C A120U C169G stands 0.00388; under C82A A111C A120U C169A, 0.0037.
C82A A111C A120U C169U: the reverse-splicing fitness came to 0.00555.
C82A A111C A120U C150G C169U U176C: the reverse-splicing fitness turned out to be 0.00486.
Consider C82A A111C A120U C150G C169U U176A, for which the reverse-splicing fitness was 0.00407.
Consider C82A A111C A120U C150G C169U U176G, for which the reverse-splicing fitness was 0.00331.
Take C82A A111C A120U C150U C169G: the reverse-splicing fitness turned out to be 0.00537.
C82A A111C A120U C150U C169A: the reverse-splicing fitness was 0.0052.
Under C82A A111C A120U C150U C169U stands 0.00638.
The same measure for C82A A111C C150U U176C: 0.0554; for C82A A111C C150U U176A: 0.036; for C82A A111C C150U U176G: 0.0134.
Under C82A A111C A145C C150G U176A stands 0.00906; under C82A A111C A145C C150G U176C, 0.016; under C82A A111C A145C C150G U176G, 0.00408.
Turning to C82A A111C A145C C150U C169A U176A, the reverse-splicing fitness was found to be 0.0127.
The same measure for C82A A111C A145C C150U C169A U176C: 0.01; for C82A A111C A145C C150U C169A U176G: 0.0095.
The same measure for C82A A111C A145U C150A U176C: 0.0205; for C82A A111C A145U C150A U176G: 0.00868.
The same measure for C82A A111C A145U C150A U176A: 0.0127; for C82A A111C A120U A145U C169U: 0.00402; for C82A A111C U176C: 0.102.
C82A A111C U176A: the reverse-splicing fitness was determined as 0.0824.
The same measure for C82A A111C U176G: 0.0172; for C82A A111G A120C A145C C150A: 0.00953.
In the case of C82A A111C A145U C150A C169G U176A, the reverse-splicing fitness turned out to be 0.014.
As to C82A A111C A145U C150A C169G U176G, the reverse-splicing fitness was 0.0087.
The same measure for C82A A111C A145U C150A C169G U176C: 0.022; for C82A A111C A120U C150U C169U U176G: 0.0027.
The same measure for C82A A111C A120U C150U C169U U176C: 0.00534; for C82A A111C A120U C150U C169U U176A: 0.00738; for C82A A111C A145C C150A: 0.0144.
For C82A A111C A145C C150U, the reverse-splicing fitness came out at 0.0486.
The same measure for C82A A111C A145C C150G: 0.0226; for C82A A111C A145U C150G C169U U176C: 0.0113.
Regarding C82A A111C A145U C150G C169U U176A, the reverse-splicing fitness turned out to be 0.00845.
In the case of C82A A111C A145U C150G C169U U176G, the reverse-splicing fitness stood at 0.00827.
In the case of C82A A111C C169G U176A, the reverse-splicing fitness worked out at 0.0177.
Under C82A A111C C169G U176G stands 0.00734; under C82A A111C C169G U176C, 0.0237; under C82A A111C A145G C169A, 0.0103.
The same measure for C82A A111C A145G C169U: 0.0142; for C82A A111C A145G C169G: 0.00878.
Under C82A A111C A145C C150A U176A stands 0.0105.
Take C82A A111C A145C C150A U176C: the reverse-splicing fitness worked out at 0.0176.
Regarding C82A A111C A145C C150A U176G, the reverse-splicing fitness came out at 0.00856.
As to C82A A111C C169U, the reverse-splicing fitness came to 0.0139.
On to C82A A111C C169G, for which the reverse-splicing fitness stood at 0.00911.
Consider C82A A111C C169A, for which the reverse-splicing fitness came to 0.00822.
For the variant C82A A111C A145G C150G U176C, the reverse-splicing fitness is 0.0173.
As for C82A A111C A145G C150G U176A, the reverse-splicing fitness came to 0.00936.
The same measure for C82A A111C A145G C150G U176G: 0.00607.
Consider C82A A111C C150A U176G, for which the reverse-splicing fitness was determined as 0.0104.
As for C82A A111C C150A U176A, the reverse-splicing fitness amounted to 0.0165.
The same measure for C82A A111C C150A U176C: 0.0285; for C82A A111C C150A C169G U176G: 0.00951; for C82A A111C C150A C169G U176C: 0.0222.
The same measure for C82A A111C C150A C169G U176A: 0.0151; for C82A A111G A120C: 0.0449.
As to C82A A111C A145G C150A C169A, the reverse-splicing fitness amounted to 0.011.
For the variant C82A A111C A145G C150A C169G, the reverse-splicing fitness stood at 0.00824.
Consider C82A A111C A145G C150A C169U, for which the reverse-splicing fitness was 0.0111.
As to C82A A111C C150G C169A U176A, the reverse-splicing fitness was found to be 0.00958.
For C82A A111C C150G C169A U176G, the reverse-splicing fitness was determined as 0.00698.
The same measure for C82A A111C C150G C169A U176C: 0.0102.

The record behind these values is the RNAGym collection of RNA variant scans (doi:10.1093/molbev/msab373).
